According to patent EP4671282A1:
Where two headings read alike, the source gives them in different places.

How the values were obtained:
[1] = target: human IL-36R full-length protein stably expressed on CHO-K1 cells (human) (UniProt Q9HB29); experiment: FACS, CHO-K1 cells overexpressing human IL-36R
[2] = target: human IL-36R full-length protein stably expressed on CHO-K1 cells (human) (UniProt Q9HB29); experiment: FACS, CHO-K1 cells overexpressing human IL-36R; remark: listed apart in the source
[3] = target: human BAFF (ACROBiosystems, BAF-H52D4) (human) (UniProt Q9Y275); experiment: ELISA, test sample coated, His-tagged BAFF in solution
human BAFF (ACROBiosystems, BAF-H52D4) (human), sequence (Q9Y275 134-285 limits assumed): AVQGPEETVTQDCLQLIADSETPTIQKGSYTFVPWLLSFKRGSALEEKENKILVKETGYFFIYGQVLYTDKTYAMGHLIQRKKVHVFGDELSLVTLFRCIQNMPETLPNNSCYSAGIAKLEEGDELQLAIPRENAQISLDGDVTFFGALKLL

human IL-36R full-length protein stably expressed on CHO-K1 cells (human), sequence (Q9HB29 20-575 limits assumed): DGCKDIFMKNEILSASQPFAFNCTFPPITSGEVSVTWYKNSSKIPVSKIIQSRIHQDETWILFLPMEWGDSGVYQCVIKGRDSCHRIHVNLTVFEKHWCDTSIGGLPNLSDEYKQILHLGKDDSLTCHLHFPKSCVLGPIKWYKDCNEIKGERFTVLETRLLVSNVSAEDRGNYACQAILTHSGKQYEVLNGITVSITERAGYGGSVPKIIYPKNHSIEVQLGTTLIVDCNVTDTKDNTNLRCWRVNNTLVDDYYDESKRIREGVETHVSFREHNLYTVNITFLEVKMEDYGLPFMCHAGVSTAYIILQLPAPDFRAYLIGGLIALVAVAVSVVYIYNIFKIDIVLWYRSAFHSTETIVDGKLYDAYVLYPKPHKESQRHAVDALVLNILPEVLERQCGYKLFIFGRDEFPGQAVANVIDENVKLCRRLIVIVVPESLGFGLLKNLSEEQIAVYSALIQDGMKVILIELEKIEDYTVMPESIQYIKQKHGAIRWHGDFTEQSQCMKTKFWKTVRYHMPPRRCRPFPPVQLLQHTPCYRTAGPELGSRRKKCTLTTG

Substance | Maximum MFI [1] | Maximum MFI [2] | EC50 [3]
hIgG4 (antibody) | 76 MFI | – | –
hIgG1 (antibody) | 77 MFI | 47 MFI | –
RCT-18, telitacicept (RC18, RemeGen) (Fc fusion) | – | – | 0.0215 µM
